Results: patent US8106004B2, “Methods of inhibiting tumor cell aggressiveness using the microenvironment of human embryonic stem cells” (Children's Memorial Hospital, priority 2006, dated 2012)

Assays:
Assay type in all cases: cell-based, human
[1] = system: C81-61 cells; test: Soft agar colony forming assay, C81-61 cells; conditions: C81-61 cell line, rNodal
Experimental: (§1) An in vitro colony forming assay was used to analyze colony-forming ability of poorly aggressive C81-61 cells, aggressive C8161 cells, C8161 cells treated with MO^Nodal and C8161 cells treated with MO^Nodal and rescued with recombinant Nodal (100 ng/mL). The assay was conducted using 50,000 cells suspended in 0.35% agarose in RPMI containing 10% serum, which were plated into 6-well dishes on 0.5% agar in the same medium. Colonies grew, and pictures were taken at day 7. After 2 weeks, colonies were stained with Crystal Violet and counted.

[2] = system: MDA-MB-231 cells; test: Soft agar / anchorage independent growth assay, MDA-MB-231 cells; conditions: recombinant Nodal 100 ng/mL
Experimental: The melanoma cell lines are maintained in RPMI 1640 medium (Invitrogen) supplemented with 10% fetal bovine serum (FBS, Gemini Bioproducts) and 0.1% gentamycin sulfate with the exception of C81-61 cells which are maintained in Ham's FIO medium supplemented with 15% FBS, 1X Mito+ (BD Bioscience) and gentamycin sulfate. Normal human melanocytes are purchased (Cascade Biologics) or isolated from neonatal foreskins. […] A single cell suspension is prepared, added to plastic flasks for the adherence of melanocytes and the cells propagated in Medium 254 with Human Melanocyte Growth Supplement (Cascade Biologics) including, 100 units/ml penicillin, 100 μg/ml streptomycin, and 250 ng/mL amphotericin B. The human embryonic stem cell lines are cultured as previously described. […] Briefly, cells are grown in 6-well plates precoated with 0.1% porcine gelatin and containing 1.9×10^5 irradiated mouse embryonic fibroblasts (strain CF-1; ATCC) per well. […] The cultures are determined to be free of mycoplasma contamination using a PCR-based assay (Roche). […] The conditioned matrix is then analyzed by 2-D LDS-PAGE and Western blot directly, or reseeded with melanoma cells and incubated for an additional 3 days. […]

[3] = system: C8161 cells; test: Soft agar / anchorage independent growth assay, C8161 cells; conditions: for rescue of inhibition of in vitro clonogenicity: recombinant Nodal 100 ng/mL
Experimental: as §1
The derivation and phenotypic characteristics of the human melanoma cell lines have been previously described. Seftor, et. al., 2002, Clin. Experim. Metastas. 19:233-246; Seftor, et. al., 2005 Cancer Res. 65:10164-10169. The melanoma cell lines are maintained in RPMI 1640 medium (Invitrogen) supplemented with 10% fetal bovine serum (FBS, Gemini Bioproducts) and 0.1% gentamycin sulfate with the exception of C81-61 cells which are maintained in Ham's FIO medium supplemented with 15% FBS, 1X Mito+ (BD Bioscience) and gentamycin sulfate. Normal human melanocytes are purchased (Cascade Biologics) or isolated from neonatal foreskins. Seftor, et. al., 2005. A single cell suspension is prepared, added to plastic flasks for the adherence of melanocytes and the cells propagated in Medium 254 with Human Melanocyte Growth Supplement (Cascade Biologics) including, 100 units/ml penicillin, 100 μg/ml streptomycin, and 250 ng/mL amphotericin B. The human embryonic stem cell lines are cultured as previously described. Thomson, et. al., 1998, Science 282:1145-1147. Briefly, cells are grown in 6-well plates precoated with 0.1% porcine gelatin and containing 1.9×10^5 irradiated mouse embryonic fibroblasts (strain CF-1; ATCC) per well. The cells are maintained in medium containing DMEM/F12 (1:1), 20% knock-out serum replacement, non-essential minimal amino acids, L-glutamine (Invitrogen), […], and 4 ng/ml FGF-2 (R&D Systems), and are split with collagenase (1 mg/ml) before the colonies begin to overlap. The cultures are determined to be free of mycoplasma contamination using a PCR-based assay (Roche). The normal human neonatal epidermal melanocytes (HEMn-LP; Cascade Biologics, Portland Oreg.), myoepithelial cells (Hs 578 Bst; American Type Culture Collection (ATCC), Manassas, Va.) and primary mammary epithelial cells (HMEpC; Cell Applications Inc., San Diego Calif.) were maintained as per distributor instructions. Live umbilical cord blood stem cells (SC00125; New Jersey Stem Cell Resource at Coriell Institute for Medical Research) amniotic fluid derived stem cells (GM00473, GM00957A) and adult bone marrow derived mesenchymal stem cells (Stem Cell Technologies, Vancouver BC, Canada) were maintained under the recommended conditions. The HTR-8/SVneo is a well characterized immortalized human extravillous cytotrophoblast cell line, and was maintained as previously described Graham et al., 1993, Exp. Cell Res. 206:204-211. […] The expression vector for wild type Nodal was kindly provided by Dr. Daniel Constam (Swiss Institute for Experimental Cancer Research (ISREC), Epalinges, Switzerland) and was transfected into C81-61 cells as previously described. Le Good et al., 2005, Curr. Biol. 15:31-36. […]

[4] = system: Nodal; test: Nodal expression in C8161 cells (Western blot, real time RT-PCR); conditions: C8161 exposed 48 hrs to 0-1000 ng/mL recombinant Lefty
Experimental: A determination of the effects of H9 CMTX on Nodal expression in metastatic melanoma (C8161) and breast carcinoma (MDA-MB-231) cells was undertaken. […] Exposure to H9 CMTX similarly abrogates Nodal mRNA expression in the melanoma and breast carcinoma cells (FIG. 9C).
Protein lysates were prepared and quantified as previously described in Hess et al., 2001, Cancer Res. 61:3250-3255. Equal amounts of protein were separated by SDS-polyacrylamide gel electrophoresis under reducing conditions, and the resolved proteins were transferred onto Immobilon-P membranes (Millipore Corp., Bedford, Mass.). Membranes were blocked in 1% TBS, 0.1% Tween 20 (TBS-T) and 5% dry milk powder or 3% gelatin (for Nodal Westerns). Blots were incubated with anti-Nodal or anti-Lefty antibodies (Polyclonal rabbit anti-Nodal (H-110) 1:500 Santa Cruz Biotechnology, Santa Cruz, Calif.; Polyclonal goat anti-Lefty 1:500 R&D Systems, Minneapolis, Minn.), washed in TBS-T, and incubated with the appropriate horseradish peroxidase-labeled secondary antibody. Secondary antibodies were detected by enhanced chemiluminescence (Super Signal; Pierce, Rockford, Ill.) and exposure to autoradiography film (Molecular Technologies, St Louis, Mo.). Nodal protein was detected as two major bands at ˜48 and ˜35 kDa representing precursor and pro-Nodal respectively. Nodal often appeared as multiple bands, likely due to degradation of protein modifications. All experiments were done at least three times.
The derivation and phenotypic characteristics of the human melanoma cell lines have been previously described. Seftor, et. al., 2002, Clin. Experim. Metastas. 19:233-246; Seftor, et. al., 2005 Cancer Res. 65:10164-10169. The melanoma cell lines are maintained in RPMI 1640 medium (Invitrogen) supplemented with 10% fetal bovine serum (FBS, Gemini Bioproducts) and 0.1% gentamycin sulfate with the exception of C81-61 cells which are maintained in Ham's FIO medium supplemented with 15% FBS, 1X Mito+ (BD Bioscience) and gentamycin sulfate. […] The cultures are determined to be free of mycoplasma contamination using a PCR-based assay (Roche). […]

Row | Molecule | colony formation [1] | rescue of inhibition of in vitro clonogenicity ([2]; MDA-MB-231 exposed to H9 CMTX) | rescue of inhibition of in vitro clonogenicity ([2]; MDA-MB-231 exposed to H9 Lefty-containing matrix) | rescue of inhibition of in vitro clonogenicity ([3]; C8161 exposed to H9 CMTX) | rescue of inhibition of in vitro clonogenicity ([3]; C8161 exposed to H9 Lefty-containing matrix) | rescue of reduced colony formation ([3]; C8161 treated with MONodal, rNodal 100 ng/mL) | Nodal protein expression (Western blot) [4]
1 | rNodal: recombinant Nodal (R&D Systems), used at 100 ng/mL (protein, UniProt Q96S42 238-347, looked up) Nodal homolog: HHLPDRSQLCRKVKFQVDFNLIGWGSWIIYPKQYNAYRCEGECPNPVGEEFHPTNHAYIQSLLKRYQPHRVPSTCCAPVKTKPLSMLYVDNGRVLLDHHKDMIVEECGCL | did not induce colony formation | partially rescued | completely rescued | partially rescued | completely rescued | rescued | 
2 | rLeftyB: recombinant Lefty-B (protein, UniProt O00292 77-366, looked up) Left-right determination …: RFSQSFREVAGRFLASEASTHLLVFGMEQRLPPNSELVQAVLRLFQEPVPKAALHRHGRLSPRSAQARVTVEWLRVRDDGSNRTSLIDSRLVSVHESGWKAFDVTEAVNFWQQLSRPRQPLLLQVSVQREHLGPLASGAHKLVRFASQGAPAGLGEPQLELHTLDLRDYGAQGDCDPEAPMTEGTRCCRQEMYIDLQGMKWAKNWVLEPPGFLAYECVGTCQQPPEALAFNWPFLGPRQCIASETASLPMIVSIKEGGRTRPQVVSLPNMRVQKCSCASDGALVPRRLQP |  |  |  |  |  |  | can inhibit Nodal protein in C8161 cells, but at a higher doses than its hESC counterpart
